Where “and” joins values, the source holds several entries; their conditions need not be identical. Equal values may be shown once.
T1: Human IL-13-Mouse IL-13 Helix C (human IL-13 with mouse Helix C, UniProt P35225 35-146, limits assumed)
T1 construct: Expressed and secreted chimeric protein; also called Mo HelixC
T1 chain: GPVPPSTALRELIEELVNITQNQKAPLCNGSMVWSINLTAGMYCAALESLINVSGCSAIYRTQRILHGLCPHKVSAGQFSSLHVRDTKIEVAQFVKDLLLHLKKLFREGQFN

T2: Human IL-13-Mouse IL-13 Helix B (human IL-13 with mouse Helix B, UniProt P35225 35-146, limits assumed)
T2 construct: Expressed and secreted chimeric protein; also called Mo HelixB
T2 chain: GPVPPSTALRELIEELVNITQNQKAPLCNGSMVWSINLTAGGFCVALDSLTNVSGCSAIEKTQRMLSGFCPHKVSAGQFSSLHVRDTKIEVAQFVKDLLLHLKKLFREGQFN

T3: mouse IL-13 (mouse, UniProt P20109 22-131, limits assumed)
T3 construct: also called murine IL-13
T3 sequence (looked up): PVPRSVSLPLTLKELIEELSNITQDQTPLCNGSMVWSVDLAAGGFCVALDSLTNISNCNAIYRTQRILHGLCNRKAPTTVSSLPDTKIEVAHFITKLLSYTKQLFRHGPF

T4: Human IL-13-Mouse IL-13 Helix D (human IL-13 with mouse Helix D)
T4 construct: Expressed and secreted chimeric protein; also called Mo HelixD
T4 chain: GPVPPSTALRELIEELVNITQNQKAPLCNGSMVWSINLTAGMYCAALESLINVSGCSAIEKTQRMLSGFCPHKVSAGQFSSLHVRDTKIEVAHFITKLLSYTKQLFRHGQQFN

T5: 693 phage
T5 peptide: YKIGEPHKDTYM


Assays:
[1] = target: T6, human IL-13 (source not stated for the assay) (human, UniProt P35225 35-146, limits assumed); assay: cell-based or functional assay
[2] = target: T1, Human IL-13-Mouse IL-13 Helix C; assay: ELISA on secreted IL-13 chimeric proteins
[3] = target: T2, Human IL-13-Mouse IL-13 Helix B; assay: ELISA on secreted IL-13 chimeric proteins
[4] = target: T7, Human IL-13-rabbit Fc fusion protein (human IL-13 fused to rabbit Fc); assay: ELISA on plates coated with IL-13RbFc, detection with rabbit anti Hu IgG Fc HRP (paragraph 267 to paragraph 269)
T7 construct: also called IL-13-RbFc; IL-13 Rb Fc
T7 sequence (chain, as listed by the source limits assumed): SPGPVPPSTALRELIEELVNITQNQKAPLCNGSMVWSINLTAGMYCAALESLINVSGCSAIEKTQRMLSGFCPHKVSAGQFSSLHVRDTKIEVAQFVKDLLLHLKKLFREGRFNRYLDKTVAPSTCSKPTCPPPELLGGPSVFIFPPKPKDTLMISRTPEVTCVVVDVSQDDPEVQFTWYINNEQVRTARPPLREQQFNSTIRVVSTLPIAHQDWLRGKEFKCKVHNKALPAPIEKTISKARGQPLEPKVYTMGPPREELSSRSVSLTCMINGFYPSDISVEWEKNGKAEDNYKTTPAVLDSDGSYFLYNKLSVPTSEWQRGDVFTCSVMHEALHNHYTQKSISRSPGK

[5] = target: T6, human IL-13 (source not stated for the …); assay: cell-based or functional assay; remark: listed apart in the source
[6] = target: T8, native human IL-13 (human, UniProt P35225 35-146, limits assumed); assay: KinExA kinetic, injection method; koff calculated from kon and KD
T8 construct: also called hIL-13

[7] = target: T8, native human IL-13; assay: KinExA; KD from the equilibrium experiments, printed in the kinetic table (injection method row)
[8] = target: T9, Recombinant Human IL-13 (R & D 213-IL-005) (human, UniProt P35225 35-146); assay: SPR (Biacore 2000), mAb captured on goat anti-human surface, IL-13 (R&D) injected, 1:1 model
T9 construct: also called IL-13 antigen (R&D Systems)

[9] = target: T8, native human IL-13; assay: KinExA kinetic, injection method
[10] = target: T8, native human IL-13; assay: KinExA, equilibrium in solution
[11] = target: marmoset IL-13 (marmoset, UniProt A0A8I3WT33 35-145); assay: KinExA, n-curve analysis
Chain of marmoset IL-13 (A0A8I3WT33 entry or part of it): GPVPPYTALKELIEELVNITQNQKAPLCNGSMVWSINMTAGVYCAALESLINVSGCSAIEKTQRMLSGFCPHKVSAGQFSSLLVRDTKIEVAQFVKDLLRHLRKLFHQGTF

[12] = target: T10, native macaque IL-13 (macaque monkey); assay: KinExA, equilibrium in solution
T10 construct: also called macaque monkey IL-13
T10 sequence (Q864V6 19-132): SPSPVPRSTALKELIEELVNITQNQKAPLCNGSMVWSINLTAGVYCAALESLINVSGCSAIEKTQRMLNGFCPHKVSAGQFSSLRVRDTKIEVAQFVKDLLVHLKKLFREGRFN

[13] = target: T8, native human IL-13; assay: KinExA; KD from the equilibrium experiments, printed in the kinetic table (direct method row); KinExA kinetic, direct method row; KD taken from the equilibrium experiments
[14] = target: T9, Recombinant Human IL-13 (R & D …); assay: SPR (Biacore 2000) high resolution, mAb captured on goat anti-human Fc pAb, IL-13 (R&D Systems) 12.6-0.394 nM, 23 C, global 1:1 fit
[15] = target: T8, native human IL-13; assay: KinExA kinetic, direct method
[16] = target: T6, human IL-13 (source not stated for the …); assay: cell-based or functional assay; remark: listed apart in the source
[17] = target: T3, mouse IL-13; assay: epitope mapping with mouse IL-13 chimeric molecules (ELISA)
[18] = target: T8, native human IL-13; assay: KinExA kinetic, direct method; koff calculated from kon and KD
[19] = target: T4, Human IL-13-Mouse IL-13 Helix D; assay: ELISA on secreted IL-13 chimeric proteins
[20] = target: T5, 693 phage; assay: Panning of mAb 693 against a 12-mer random peptide library expressed on phage, two rounds

Row | Binder | binding result [2] | binding result [3] | IC50, IL-13 induced eotaxin release, Average [5] [nM] | IC50, IL-13 induced eotaxin release, n = 1 [5] [nM] | IC50, IL-13 induced eotaxin release, n = 2 [5] [nM] | IC50, IL-13 induced eotaxin release, n = 3 [5] [nM] | Kd [8] | koff [8] | kon [8] | binding result [17] | binding result [19] | also measured
1 | mAb 623 (antibody, V domains shown, also called sc623) VH: EVQLVESGGGLVKPGGSLRLSCAASGFTFSNAWMSWVRQAPGKGLEWVGRIRSEIDGGTTNYAAPVKGRFTISRDDSKNTLYLQMNSLKTEDTAVYYCATDQVGAYYGDYYGMDVWGQGTTVTVSS VL: SYELTQPPSVSVSPGQTARITCSGDALPEKYAYWYQQKSGQAPVLVIYEDSKRPSGIPERFSGSSSGTMATLTISGAQVEDEADYYCHSTDSSGNHGVFGGGTKLTVLG | binds | binds | 0.036 | 0.031 | 0.04 | 0.035 | 0.052 nM | 0.00025 s⁻¹ | 4.9e+06 M⁻¹ s⁻¹ | no binding |  | EC50, HDLM-2 proliferation assay (3H-thymidine) [1]: 4.5 nM; EC50, L-1236 proliferation assay (3H-thymidine) [1]: 0.39 nM; IC50, IL-13-induced CD23 expression on whole blood B cells (FACS) [1]: 6.2 nM; binding result [4]: binds; koff [6]: 0.00036 s⁻¹; Kd [7]: 0.024 nM; kon [9]: 1.5e+07 M⁻¹ s⁻¹; Kd [10]: 0.024 nM; Kd [11]: 0.403 nM; Kd [12]: 0.037 nM; Kd [13]: 0.024 nM; Kd [14]: 0.034 nM; kon [14]: 7.3e+06 M⁻¹ s⁻¹; kon [15]: 1.1e+07 M⁻¹ s⁻¹; IC50, eotaxin production by HDFa cells, 300 pM IL-13 [16]: 56 pM; IC50, eotaxin production by HDFa cells, 600 pM IL-13 [16]: 113 pM; koff [18]: 0.00027 s⁻¹
2 | mAb 693 (antibody, V domains shown, also called sc693) VH: QVQLQESGPGLVKPSETLSLTCSVSGGSISSYYWSWIRQPAGKGLEWIGRIYMTGRTNYNSSLKSRVTMSIDTSKNQLSLKLSFMTAADTAVYYCARESGSSYSYDYWGQGTLVTVSS VL: SYVLTQPPSVSVAPGQTARITCGGNNIGSKGVHWYQQKPGQAPVLVVYDDSDRPSGIPERFSGSNSGNTATLTISRVEAGDEADYYCQVWVSSSDHHVVFGGGTKLTVV | binds | binds | 0.054 | 0.038 | 0.069 | 0.053 | 0.189 nM and 0.109 nM | 0.00038 s⁻¹ and 0.00027 s⁻¹ | 2e+06 M⁻¹ s⁻¹ and 2.5e+06 M⁻¹ s⁻¹ | no binding | no binding | binding result [20]: binds
3 | mAb 785 (antibody, V domains shown) VH: not shown VL: SYVLTQPPSVSVAPGQTARITCGGNNIGNKIVHWYQQKPGQAPVLVVYDDSDRPSGIPERFSGSNSGNTATLTISRVEAGDEADYYCQVWDSSSDHVVFGGGTKLTVLG | binds | binds | 0.176 | 0.223 | 0.144 | 0.16 |  |  |  | no binding | no binding | 

Reference: US20100047253A1 (Amgen, published 2010)
